Data published in US20230051847A1 (Johns Hopkins, published 2023).
Like-named read-outs stand apart in the source and are kept apart here.

Tests used:
Assay in all cases: flow cytometry: scFv phage supernatant on peptide-pulsed SigM5 cells (HLA-A1+), median fluorescence intensity
RAS Q61WT[55-64] pHLA-A1 [1] = molecular target: T1, RAS Q61WT[55-64] pHLA-A1 (human)
T1 construct: also called Q61WT pHLA-A1; H/K/N RAS WT(55-64) peptide on HLA-A1

RAS Q61WT[55-64] pHLA-A1 [2] = molecular target: T1, RAS Q61WT[55-64] pHLA-A1; remark: listed apart in the source
RAS Q61WT[55-64] pHLA-A1 [3] = molecular target: T1, RAS Q61WT[55-64] pHLA-A1; remark: listed apart in the source
Description: Cells were stained with 50 μL of phage supernatant per 50 μL of cells, washed and stained with rabbit anti-M13 antibody, then washed and stained with anti-Rabbit-PE antibody. Cells were stained with a live/dead Near-IR dye, washed, and analyzed by an iQue Screener (IntelliCyt, Albuquerque, N. Mex.).
Monoclonal phage were grown and sequenced as described above. Phage supernatant from representative wells of each unique clone was selected for flow cytometry analysis. In each well of a deep 96-well 2 mL plate, 50 μL of monoclonal phage was incubated with 2.5×10⁵ peptide-pulsed SigM5 cells in 50 μL of stain buffer. Plates were incubated on ice for 1 hour, followed by washing with 1 mL of stain buffer. Cells were then stained with 1 μg of rabbit anti-M13 antibody (Novus Biologicals), washed, stained with anti-rabbit-PE (BioLegend), incubated with an additional 100 μL of LIVE/DEAD Fixable Near-IR dye diluted 1:1000 in PBS for 10 minutes at RT in the dark, followed by washing in stain buffer before analysis. Stained cells were analyzed using an Intellicyt iQue3 flow cytometer (Sartorius, Gottingen, Germany).

Binder | binding result (RAS Q61WT[55-64] pHLA-A1 [2]) | binding result (RAS Q61WT[55-64] pHLA-A1 [3]) | further results
H/K/N RAS Q61H_A1_cl5 (scFv) scFv: DIQMTQSPSSLSASVGDRVTITCRASQDVNTAVAWYQQKPGKAPKLLIYSASFLYSGVPSRFSGSRSGTDFTLTISSLQPEDFATYYCQQSSYSPWTFGQGTKVEIKRTGGGSGGGGSGGGASEVQLVESGGGLVQPGGSLRLSCAASGFNISPWDMHWVRQAPGKGLEWVAQLYPSSGYTNYADSVKGRFTISADTSKNTAYLQMNSLRAEDTAVYYCSRSVYWSLDYWGQGTLVTVSS | – | – | binding result (RAS Q61WT[55-64] pHLA-A1 [1]): no binding
H/K/N RAS Q61L_A1_cl6 (scFv) scFv: DIQMTQSPSSLSASVGDRVTITCRASQDVNTAVAWYQQKPGKAPKLLIYSASFLYSGVPSRFSGSRSGTDFTLTISSLQPEDFATYYCQQSYYSPWTFGQGTKVEIKRTGGGSGGGGSGGGASEVQLVESGGGLVQPGGSLRLSCAASGFNISYSNIHWVRQAPGKGLEWVAMIYGTRGGTYYADSVKGRFTISADTSKNTAYLQMNSLRAEDTAVYYCSRYYSYAMDYWGQGTLVTVSS | no binding | – | –
H/R/N RAS Q61R_A1_cl13 (scFv) scFv: DIQMTQSPSSLSASVGDRVTITCRASQDVNTAVAWYQQKPGKAPKLLIYSASFLYSGVPSRFSGSRSGTDFTLTISSLQPEDFATYYCQQYSYDPITFGQGTKVEIKRTGGGSGGGGSGGGASEVQLVESGGGLVQPGGSLRLSCAASGFNFSYSAMHWVRQAPGKGLEWVADVVPDGDWTYYADSVKGRFTISADTSKNTAYLQMNSLRAEDTAVYYCSRGWYALDYWGQGTLVTVSS | – | no binding | –
H/K/N RAS Q61L_A1_cl11 (scFv) scFv: DIQMTQSPSSLSASVGDRVTITCRASQDVNTAVAWYQQKPGKAPKLLIYSASFLYSGVPSRFSGSRSGTDFTLTISSLQPEDFATYYCQQYDRPITFGQGTKVEIKRTGGGSGGGGSGGGASEVQLVESGGGLVQPGGSLRLSCAASGFNIYYEAMHWVRQAPGKGLEWVAQIYPWNDYTYYADSVKGRFTISADTSKNTAYLQMNSLRAEDTAVYYCSRNYYAATMDYWGQGTLVTVSS | no binding | – | –
H/K/N RAS Q61L_A1_cl3 (scFv) scFv: DIQMTQSPSSLSASVGDRVTITCRASQDVNTAVAWYQQKPGKAPKLLIYSASFLYSGVPSRFSGSRSGTDFTLTISSLQPEDFATYYCQQTSSYPITFGQGTKVEIKRTGGGSGGGGSGGGASEVQLVESGGGLVQPGGSLRLSCAASGFNIYWYGMHWVRQAPGKGLEWVAQVYPWSGFTYYADSVKGRFTISADTSKNTAYLQMNSLRAEDTAVYYCSRDYYSYSLDYWGQGTLVTVSS | no binding | – | –
H/K/N RAS Q61L_A1_cl10 (scFv) scFv: DIQMTQSPSSLSASVGDRVTITCRASQDVNTAVAWYQQKPGKAPKLLIYSASFLYSGVPSRFSGSRSGTDFTLTISSLQPEDFATYYCQQSYYPYYPWTFGQGTKVEIKRTGGGSGGGGSGGGASEVQLVESGGGLVQPGGSLRLSCAASGFNVSHSAMHWVRQAPGKGLEWVATVHPDWGNTYYADSVKGRFTISADTSKNTAYLQMNSLRAEDTAVYYCSRWQQYYYSFDYWGQGTLVTVSS | no binding | – | –
H/K/N RAS Q61H_A1_cl9 (scFv) scFv: DIQMTQSPSSLSASVGDRVTITCRASQDVNTAVAWYQQKPGKAPKLLIYSASFLYSGVPSRFSGSRSGTDFTLTISSLQPEDFATYYCQQGEYSPLTFGQGTKVEIKRTGGGSGGGGSGGGASEVQLVESGGGLVQPGGSLRLSCAASGFNVFESAMHWVRQAPGKGLEWVAWVYGSYDYTYYADSVKGRFTISADTSKNTAYLQMNSLRAEDTAVYYCSRSFAYFQAMDYWGQGTLVTVSS | – | – | binding result (RAS Q61WT[55-64] pHLA-A1 [1]): no binding
H/R/N RAS Q61R_A1_cl19 (scFv) scFv: DIQMTQSPSSLSASVGDRVTITCRASQDVNTAVAWYQQKPGKAPKLLIYSASFLYSGVPSRFSGSRSGTDFTLTISSLQPEDFATYYCQQLMYDPITFGQGTKVEIKRTGGGSGGGGSGGGASEVQLVESGGGLVQPGGSLRLSCAASGFNFGTYWMHWVRQAPGKGLEWVAWFLPDYDYTLYADSVKGRFTISADTSKNTAYLQMNSLRAEDTAVYYCSRHGEYAFDYWGQGTLVTVSS | – | no binding | –
H/R/N RAS Q61R_A1_cl1 (scFv, also called H/K/N RAS Q61R(55-64)-A1 cl.1) scFv: DIQMTQSPSSLSASVGDRVTITCRASQDVNTAVAWYQQKPGKAPKLLIYSASFLYSGVPSRFSGSRSGTDFTLTISSLQPEDFATYYCQQSYTSPLTFGQGTKVEIKRTGGGSGGGGSGGGASEVQLVESGGGLVQPGGSLRLSCAASGFNIYYGVMHWVRQAPGKGLEWVAMIYPDSSWTYYADSVKGRFTISADTSKNTAYLQMNSLRAEDTAVYYCSRDQDFHYMNYYLSYALDYWGQGTLVTVSS | – | no binding | –
H/R/N RAS Q61R_A1_cl7 (scFv) scFv: DIQMTQSPSSLSASVGDRVTITCRASQDVNTAVAWYQQKPGKAPKLLIYSASFLYSGVPSRFSGSRSGTDFTLTISSLQPEDFATYYCQQYASDPITFGQGTKVEIKRTGGGSGGGGSGGGASEVQLVESGGGLVQPGGSLRLSCAASGFNLDYGWMHWVRQAPGKGLEWVAWVVPGSDYTDYADSVKGRFTISADTSKNTAYLQMNSLRAEDTAVYYCSRFHYTAFDVWGQGTLVTVSS | – | no binding | –
H/R/N RAS Q61R_A1_cl18 (scFv) scFv: DIQMTQSPSSLSASVGDRVTITCRASQDVNTAVAWYQQKPGKAPKLLIYSASFLYSGVPSRFSGSRSGTDFTLTISSLQPEDFATYYCQQYIYDPVTFGQGTKVEIKRTGGGSGGGGSGGGASEVQLVESGGGLVQPGGSLRLSCAASGFNVDWAWMHWVRQAPGKGLEWVAWVVGGSDYTYYADSVKGRFTISADTSKNTAYLQMNSLRAEDTAVYYCSRSYYYAFDYWGQGTLVTVSS | – | no binding | –
H/R/N RAS Q61R_A1_cl5 (scFv) scFv: DIQMTQSPSSLSASVGDRVTITCRASQDVNTAVAWYQQKPGKAPKLLIYSASFLYSGVPSRFSGSRSGTDFTLTISSLQPEDFATYYCQQYYLYQPITFGQGTKVEIKRTGGGSGGGGSGGGASEVQLVESGGGLVQPGGSLRLSCAASGFNIGMYTMHWVRQAPGKGLEWVALVYPDSGYTNYADSVKGRFTISADTSKNTAYLQMNSLRAEDTAVYYCSRYTWQSMDYWGQGTLVTVSS | – | no binding | –
H/K/N RAS Q61L_A1_cl9 (scFv) scFv: DIQMTQSPSSLSASVGDRVTITCRASQDVNTAVAWYQQKPGKAPKLLIYSASFLYSGVPSRFSGSRSGTDFTLTISSLQPEDFATYYCQQTYYYPFTFGQGTKVEIKRTGGGSGGGGSGGGASEVQLVESGGGLVQPGGSLRLSCAASGFNLYAWGMHWVRQAPGKGLEWVALVYGGWGSTSYADSVKGRFTISADTSKNTAYLQMNSLRAEDTAVYYCSRAGSSKMSAGAFDYWGQGTLVTVSS | no binding | – | –
H/K/N RAS Q61H_A1_cl8 (scFv) scFv: DIQMTQSPSSLSASVGDRVTITCRASQDVNTAVAWYQQKPGKAPKLLIYSASFLYSGVPSRFSGSRSGTDFTLTISSLQPEDFATYYCQQSFSTPITFGQGTKVEIKRTGGGSGGGGSGGGASEVQLVESGGGLVQPGGSLRLSCAASGFNISEYLMHWVRQAPGKGLEWVALLPPGLSYTNYADSVKGRFTISADTSKNTAYLQMNSLRAEDTAVYYCSRYGYYAFDYWGQGTLVTVSS | – | – | binding result (RAS Q61WT[55-64] pHLA-A1 [1]): no binding
H/R/N RAS Q61R_A1_cl3 (scFv) scFv: DIQMTQSPSSLSASVGDRVTITCRASQDVNTAVAWYQQKPGKAPKLLIYSASFLYSGVPSRFSGSRSGTDFTLTISSLQPEDFATYYCQQSYYAPITFGQGTKVEIKRTGGGSGGGGSGGGASEVQLVESGGGLVQPGGSLRLSCAASGFNVQWSHMHWVRQAPGKGLEWVARLSPPSGYTNYADSVKGRFTISADTSKNTAYLQMNSLRAEDTAVYYCSRLILSKGGYGWAMDYWGQGTLVTVSS | – | no binding | –
H/K/N RAS Q61L_A1_cl8 (scFv) scFv: DIQMTQSPSSLSASVGDRVTITCRASQDVNTAVAWYQQKPGKAPKLLIYSASFLYSGVPSRFSGSRSGTDFTLTISSLQPEDFATYYCQQSYSSGPVTFGQGTKVEIKRTGGGSGGGGSGGGASEVQLVESGGGLVQPGGSLRLSCAASGFNFSYGGIHWVRQAPGKGLEWVAMIYPLTGYTNYADSVKGRFTISADTSKNTAYLQMNSLRAEDTAVYYCSRDYYYSVDVWGQGTLVTVSS | no binding | – | –
H/K/N RAS Q61L_A1_cl4 (scFv) scFv: DIQMTQSPSSLSASVGDRVTITCRASQDVNTAVAWYQQKPGKAPKLLIYSASFLYSGVPSRFSGSRSGTDFTLTISSLQPEDFATYYCQQSWYSPSTFGQGTKVEIKRTGGGSGGGGSGGGASEVQLVESGGGLVQPGGSLRLSCAASGFNISASGMHWVRQAPGKGLEWVAWIWGGSSYTYYADSVKGRFTISADTSKNTAYLQMNSLRAEDTAVYYCSRGQYLSYMDYWGQGTLVTVSS | no binding | – | –
H/K/N RAS Q61L_A1_cl1 (scFv) scFv: DIQMTQSPSSLSASVGDRVTITCRASQDVNTAVAWYQQKPGKAPKLLIYSASFLYSGVPSRFSGSRSGTDFTLTISSLQPEDFATYYCQQASRQPYTFGQGTKVEIKRTGGGSGGGGSGGGASEVQLVESGGGLVQPGGSLRLSCAASGFNFSESGMHWVRQAPGKGLEWVAHFSGDSGYTYYADSVKGRFTISADTSKNTAYLQMNSLRAEDTAVYYCSRYMYYSGYFDYWGQGTLVTVSS | no binding | – | –
H/K/N RAS Q61L_A1_cl7 (scFv) scFv: DIQMTQSPSSLSASVGDRVTITCRASQDVNTAVAWYQQKPGKAPKLLIYSASFLYSGVPSRFSGSRSGTDFTLTISSLQPEDFATYYCQQAYYPPWTFGQGTKVEIKRTGGGSGGGGSGGGASEVQLVESGGGLVQPGGSLRLSCAASGFNVSRWAMHWVRQAPGKGLEWVARVYPSGYLTYYADSVKGRFTISADTSKNTAYLQMNSLRAEDTAVYYCSRNMQSYMDYWGQGTLVTVSS | no binding | – | –
H/R/N RAS Q61R_A1_cl2 (scFv) scFv: DIQMTQSPSSLSASVGDRVTITCRASQDVNTAVAWYQQKPGKAPKLLIYSASFLYSGVPSRFSGSRSGTDFTLTISSLQPEDFATYYCQQYWYYYPITFGQGTKVEIKRTGGGSGGGGSGGGASEVQLVESGGGLVQPGGSLRLSCAASGFNIYSYDMHWVRQAPGKGLEWVAISPGGSYTYYADSVKGRFTISADTSKNTAYLQMNSLRAEDTAVYYCSRSAFTGYFDVWGQGTLVTVSS | – | no binding | –
